Laboratory results as given in paper PMC10743851.

Target: actin (of the actin-chitin affinity column)
Assay: sequential dual-affinity chromatography; DBP of donor eluted from the 25-OH-D3/Sepharose column, loaded on the Actin/chitin column

percent bound: < 10%
Substance: vitamin D3-binding protein (DBP) of donor (from UniProt P02774 17-474) (natural protein)
